Biological target: T1, peptide LYAR_(175-219) (human, UniProt Q9NX58 175-219)
T1 construct: LYAR, human, residues 175-219
Test: ITC; peptide BRD2 489-540 with peptide LYAR 175-219 (Supplementary Figure S5E)
Details: both partners purified

stoichiometry N: 1
B1: peptide BRD2_(489-540) (peptide, UniProt P25440 489-540, looked up)
peptide: SSSEEEEEEDEEDEEEEESESSDSEEERAHRLAELQEQLRAVHEQLAALSQG
notes: Bromodomain-containing protein 2, human, residues 489-540

— PMC6821171, “LYAR potentiates rRNA synthesis by recruiting BRD2/4 and the MYST-type acetyltransferase KAT7 to rDNA” (Nucleic Acids Research, 2019)
